Changes are numbered by the printed parent chain.

The test concerns the target T1, human iRhom2 (inactive rhomboid protein 2, isoform 1), endogenously expressed on human cells (human, UniProt Q6PJF5 1-856).
T1 construct: also called RHBDF2; NP_078875.4
T1 sequence: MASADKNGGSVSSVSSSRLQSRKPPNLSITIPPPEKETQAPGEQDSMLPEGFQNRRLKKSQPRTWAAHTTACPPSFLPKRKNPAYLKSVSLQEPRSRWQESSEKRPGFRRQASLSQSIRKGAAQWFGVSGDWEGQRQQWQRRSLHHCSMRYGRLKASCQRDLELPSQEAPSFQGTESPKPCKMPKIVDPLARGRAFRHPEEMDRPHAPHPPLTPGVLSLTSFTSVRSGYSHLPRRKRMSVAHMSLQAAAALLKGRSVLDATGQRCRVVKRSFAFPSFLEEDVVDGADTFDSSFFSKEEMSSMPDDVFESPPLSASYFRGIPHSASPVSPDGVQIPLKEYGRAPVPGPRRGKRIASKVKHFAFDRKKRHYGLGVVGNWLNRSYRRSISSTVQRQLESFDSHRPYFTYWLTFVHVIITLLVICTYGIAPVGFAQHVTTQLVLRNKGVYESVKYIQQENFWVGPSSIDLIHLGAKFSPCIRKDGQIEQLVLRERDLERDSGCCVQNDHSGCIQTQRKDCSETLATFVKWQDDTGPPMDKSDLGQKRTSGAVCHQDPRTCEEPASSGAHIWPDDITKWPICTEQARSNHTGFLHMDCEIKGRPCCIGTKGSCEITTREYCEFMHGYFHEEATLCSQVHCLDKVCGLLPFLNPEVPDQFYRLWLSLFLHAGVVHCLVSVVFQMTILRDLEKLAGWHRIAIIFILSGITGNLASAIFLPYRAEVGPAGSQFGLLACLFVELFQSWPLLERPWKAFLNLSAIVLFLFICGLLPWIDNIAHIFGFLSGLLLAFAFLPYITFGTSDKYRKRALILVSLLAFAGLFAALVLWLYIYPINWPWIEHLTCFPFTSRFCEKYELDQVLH
Description: indirect FACS scatchard analysis on THP-1 cells (endogenous iRhom2). How it is done: In brief, human THP-1 cells (American Type Culture Collection, USA) were harvested with 10 mM EDTA in PBS, washed and resuspended in FACS buffer (PBS, 3% FBS, 0.05% sodium azide), and seeded in Nunc U-bottom 96-well plates (Thermo Fisher Scientific, USA) at approximately 3×10⁵ cells per well. In order to pellet cells and remove supernatants, the plates were centrifuged at 1,500 rpm and 4° C. for 3 minutes. For primary staining, cells were resuspended in 100 μl per well of either FACS buffer alone (controls) or serial two-fold dilutions (in total 22 concentrations) of the purified antibodies 3, 5, 16, 22, 34, 42, 43, 44, 48, and 50 of the present disclosure in FACS buffer starting at 40 μg/ml and incubated on ice for 1 hour. Afterwards, plates were centrifuged at 1,500 rpm and 4° C. for 3 minutes and washed twice with 200 μl per well of FACS buffer. For secondary staining, cells were spun down and resuspended in 100 μl per well of PE-conjugated goat anti-mouse IgG F(ab′)2 detection fragment (Dianova, Germany) diluted 1:100 in FACS buffer. Protected from light, the cell suspensions were incubated on ice for 1 hour. Plates were then centrifuged at 1,500 rpm and 4° C. for 3 minutes and washed three times with 200 μl per well of FACS buffer. Finally, cells were resuspended in 150 μl per well of FACS buffer and analyzed using a BD Accuri™ C6 Plus flow cytometer (Becton Dickinson, Germany). Applying Prism8 software (GraphPad Sowtware, USA), the respective KD value for each of the antibodies of the present disclosure were calculated.

B1: antibody 34 (antibody, V domains shown)
VH: QVTLKESGPGILQPSQTLSLTCSFSGFSLSTFSLGVGWIRQSSGKGLEWLAHIWWDDEKYYNPALKSRLTISKDTSKNQVFLKIANVDAADTATYYCARAYYSKSYYALDYWGQGTSVTVSS
VL: DIQMTQSPSSLSASLGERVSLTCRASQEISGYLSWLQQKPDGTIKRLIYAASTLDSGVPKRFSGSRSGSDYSLAISSLESEDFADYYCLQYANFPFTFGSGTKLEIK
notes: Mouse IgG, kappa light chain; also called clone #34; m34
For orientation: Kd means a measure of binding affinity in units of concentration. Read a high Kd as lower affinity. In turn, B1 showed a Kd of 1.94 nM.

B2: antibody 48 (antibody, V domains shown)
VH: QVQLQQSGTELVRPGTSVKVSCKASGYAFTNYLIEWVKQRPGQGLEWIGVINPGSGFTKYNEKFKGKATLTADKSSSTVYMHLSSLTSEDSAVYFCARGLYRAMDYWGQGTSVTVSS
VL: DIQMTQSPASQSASLGESVTITCLASQTIATWLAWYQQKPGKSPQLLIYGATTLADGVPSRFSGGGSGTKFSFKISSLQAEDFVSYYCQQLYSTPYTFGGGTKLEIK
notes: Mouse IgG, kappa light chain; also called clone #48; purified antibody 48
Regarding B2, binding was characterised by a dissociation constant (Kd) of 1.73 nM. The Kd values of the last two molecules are within 1.5-fold of each other.

B3: antibody 50 (antibody, V domains shown)
VH: B2 VH with T9A, T16A, T30S, V79A, H82Q
VL: B2 VL with A30G, G50A, T52A, T53S, S85N, L91I
notes: Mouse IgG, kappa light chain; also called clone #50; purified antibody 50
In turn, B3 came in with a Kd of 1.43 nM.

B4: antibody 43 (antibody, V domains shown)
VH: QVALKESGPGILQPSQTLSLTCSFSGFSLSTFGMGVGWIRQSSGKGLEWLANIWWDDDKYYNPALKSRLTISKDASKNQAFLKIANVDTADTATYYCARIGNYGSNYWYFDVWGTGTTVTVSS
VL: QIVLTQSPAIMSASPGERVTMTCSANSRISYMYWYQQKPGSSPRLLIYDTSNLASGVPVRFSGSGSGTSYSLTISRMEAEDAATYNCQQWSSYPLTFGAGTKLELK
notes: Mouse IgG, kappa light chain; also called clone #43
The molecule B4 registered a Kd of 4.55 nM. Against the preceding molecule, the Kd is about 3.2-fold higher.

B5: antibody 44 (antibody, V domains shown)
VH: B4 VH with A3T, S42P, G44E, N52H, A75T, A80I, A85T, D91E, A98S
VL: QIVLTQSPAVMSASPGEKVTMTCTASSSVYYMYWYQQTPGSSPRLLIYDTSNLASGVPVRFSGSGSGTSYSLTISRMEAEDAATYYCQQWNTYPLTFGAGTKLELK
notes: Mouse IgG, kappa light chain; also called clone #44; m44
B5 gave a Kd of 0.44 nM.

B6: antibody 42 (antibody, V domains shown)
VH: B4 VH with A3T, F24L, M34R, S42P, N52H, D58E, A75T, A80V, K83R, G101Q
VL: B4 VL with Q1L, R18K, S24G, N26T, Y33F, L45V, M77V, A82V, N86Y, S91N
notes: Mouse IgG, kappa light chain; also called clone #42; m42
B6 returned a Kd of 1.9 nM.

B7: antibody 5 (antibody, V domains shown)
VH: B4 VH with A3T, S42P, N52H, D58E, P63S, D74A, A75T, G101S, D111N
VL: QVVLTQSPALMSASPGEKVTMTCSAGSSVSCMYWYQQKPGSSPRVLIYDTSNLASGVPARFTGSGSGTSYSLTISRMEAEDAASYYCQQWNSYPLTFGAGTKLELK
notes: Mouse IgG, kappa light chain; also called clone #5; purified antibody 5
Take B7: the Kd worked out at 3.35 nM.

B8: antibody 22 (antibody, V domains shown)
VH: B4 VH with A3T, S42P, N52H, D58E, P63S, D74A, A75T, A80V, G101S, D111N
VL: B7 VL with C31Y, S84T
notes: Mouse IgG, kappa light chain; also called clone #22; m22
In turn, B8 registered a Kd of 2.04 nM.

B9: antibody 16 (antibody, V domains shown)
VH: QVTLKESGPGILQPSQTLSLTCSFSGFSLSTFALGVGWIRQPSGRGLEWLAHIWWDDDKYYNPALKSRLTISKDTSKNHVFLKIANVDTADTATYYCARITTYYYGMDYWGQGTSVTVSS
VL: DIVLSQSPATLSVTPGDSVSLFCRASQSIGNHLHWYQQESHASPRLLIKYASQSISGIPSRFSGSGSGTDFTLSINSVETEDFGMYFCQQSYNWPLTFGAGTKLELK
notes: Mouse IgG, kappa light chain; also called clone #16; m16
Molecule B9 registered a Kd of 0.34 nM.

B10: antibody 3 (antibody, V domains shown)
VH: QVTLKESGPGILQPSQTLSLTCSFSGFSLTTFAMGIGWVRQPSGKGLEWLAHIWWDGEKYNNPVLKSRLTISKDTSKNQVFLRIANVDTPDTATYYCARISSIYYIIDNWGQGTSVTVSS
VL: B9 VL with S5T, D17H, F22S, G30S, H32N, Q38K, E39K, A42E, A51V
notes: Mouse IgG, kappa light chain; also called clone #3; purified antibody 3
B10 gave a Kd of 2.97 nM.

Values taken from patent US20240174744A1 (SCIRHOM, published 2024).
